Results taken from patent US20080254508.

T1: holo-ZmaD
T1 chain: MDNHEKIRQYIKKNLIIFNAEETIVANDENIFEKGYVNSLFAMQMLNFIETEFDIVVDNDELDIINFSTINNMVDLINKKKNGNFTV

B1: ZmaN (protein)
chain: MSKEIKCVVWDLDCTIWDGVLLESGTVTLKPGIYEIICELDRRGILQSVASKNNYEDAIAKLREFGIEEYFLYPEIHWNSKSSSIEKIRKNLNIGIDTFAFIDDQPFELEEVQSVHNDILCIHVNEYKSLLDLPRLQPKRITEDSGRRRLMYLENLKRTKDEEEYEGPKEEFLASLGMNFVISEAREEDLQRAEELTVRTNQLNSTGITYDYDELNYYRNHPDYLLLVCELSDKYGSYGKIGLTLVKRTEEADCLKLLLMSCRVMSRGVGTILLTYLMERTKQAGKRFLAEFRQTDRNRMMFVTYRLAGFKETSNENGILILEHNLENINPYPHYINIQFPETPTDVDRGEVEICNKQL

Tests used:
holo-ZmaD [1] = system: holo-ZmaD
holo-ZmaH [2] = system: holo-ZmaH
holo-ZmaH [3] = molecular target: holo-ZmaH; remark: listed apart in the source
holo-ZmaD [4] = molecular target: T1, holo-ZmaD

| Molecule | aminoacylation of holo-ZmaD (holo-ZmaD replaced holo-ZmaH) (holo-ZmaD [1]) | formation of seryl-ZmaH (HPLC elution shift and MS mass of holo-ZmaH) (holo-ZmaH [2]) | formation of glyceryl-ACP (control reaction in which holo-ZmaH replaced holo-ZmaD) (holo-ZmaH [3]) | formation of glyceryl-ZmaD (HPLC elution shift and MALDI-TOF MS mass shift of holo-ZmaD) (holo-ZmaD [4]) | rate of holo-ZmaD modification, with 3-PGPK (holo-ZmaD [4]) | rate of holo-ZmaD modification, without 3-PGPK (holo-ZmaD [4]) |
| --- | --- | --- | --- | --- | --- | --- |
| ZmaJ | ZmaJ was not able to aminoacylate holo-ZmaD | Incubation of holo-ZmaH with ZmaJ, L-Ser, and ATP resulted in a change in the holo-ZmaH elution time from the HPLC, and the mass of the purified product was consistent with the formation of seryl-ZmaH |  |  |  |  |
| B1 |  |  | holo-ZmaH was not a substrate for ZmaN-catalyzed formation of glyceryl-ACP | The mass of holo-ZmaD had shifted to be consistent with the formation of glyceryl-ZmaD | 1.44 nmol min-1 with 3-PGPK | 0.08 nmol min-1 without 3-PGPK |
